Results on 1 molecule are retold here after patent publication US20160326237A1 (ANNEXON, published 2016).

Some results are limits rather than exact numbers.

Test [1] addresses T1, mouse C1q (mouse, UniProt P14106 26-253). Nature of the test: BLI (OCTET).
For test [2], the target named is T2, human C1q (human, UniProt P02745 23-245; P02746 28-253; P02747 29-245).
T2 construct: Native C1q (about 460 kDa) holds several copies of each chain; also called hC1q; C1Q antigen
Kind of test: BLI (OCTET).

The target in test [3] is T1, mouse C1q. Nature of the test: BLI (OCTET), C1q immobilised, antibody 2.0 ug/ml.
For test [4], the target named is T2, human C1q. Kind of test: BLI (OCTET), C1q immobilised, antibody 2.0 ug/ml.

By Kd is commonly meant the concentration at which binding is half-saturated. Read a high Kd as lower affinity. In general, koff refers to a measure of how fast the partners let go of each other. Low readings indicate slow dissociation, high ones fast dissociation. As usually defined, the kon is the second-order rate constant of association. Low values mean slow association, high ones fast association.

T2 sequence (P02745 23-245 limits assumed, chain 1 of 3): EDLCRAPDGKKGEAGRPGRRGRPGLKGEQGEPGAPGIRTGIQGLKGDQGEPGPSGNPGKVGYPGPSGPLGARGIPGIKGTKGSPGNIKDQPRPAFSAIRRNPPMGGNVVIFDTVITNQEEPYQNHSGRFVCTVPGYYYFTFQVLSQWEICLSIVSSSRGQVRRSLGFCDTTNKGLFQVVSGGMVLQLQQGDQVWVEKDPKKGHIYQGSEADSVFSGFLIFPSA
T2 sequence (P02746 28-253 limits assumed, chain 2 of 3): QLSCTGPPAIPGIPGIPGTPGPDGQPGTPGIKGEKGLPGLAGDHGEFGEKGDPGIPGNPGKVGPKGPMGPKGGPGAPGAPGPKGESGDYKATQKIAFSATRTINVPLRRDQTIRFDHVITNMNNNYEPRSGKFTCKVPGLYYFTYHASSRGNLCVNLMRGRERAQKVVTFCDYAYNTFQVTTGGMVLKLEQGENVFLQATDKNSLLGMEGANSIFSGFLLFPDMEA
T2 sequence (P02747 29-245 limits assumed, chain 3 of 3): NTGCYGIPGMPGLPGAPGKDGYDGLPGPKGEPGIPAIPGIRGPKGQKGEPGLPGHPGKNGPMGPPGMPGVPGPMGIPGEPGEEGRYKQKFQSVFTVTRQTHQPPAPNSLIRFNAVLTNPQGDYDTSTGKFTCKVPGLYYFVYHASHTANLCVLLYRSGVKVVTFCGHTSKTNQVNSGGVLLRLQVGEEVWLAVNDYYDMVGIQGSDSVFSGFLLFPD
T1 sequence (chain, as listed by the source, chain 1 of 3): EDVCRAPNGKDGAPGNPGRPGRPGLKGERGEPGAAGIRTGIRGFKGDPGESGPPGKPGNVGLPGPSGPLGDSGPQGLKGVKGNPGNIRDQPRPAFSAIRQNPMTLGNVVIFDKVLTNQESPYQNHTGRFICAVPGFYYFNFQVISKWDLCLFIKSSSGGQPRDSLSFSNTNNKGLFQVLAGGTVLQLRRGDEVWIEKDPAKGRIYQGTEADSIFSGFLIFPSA
T1 sequence (P14106 26-253, chain 2 of 3): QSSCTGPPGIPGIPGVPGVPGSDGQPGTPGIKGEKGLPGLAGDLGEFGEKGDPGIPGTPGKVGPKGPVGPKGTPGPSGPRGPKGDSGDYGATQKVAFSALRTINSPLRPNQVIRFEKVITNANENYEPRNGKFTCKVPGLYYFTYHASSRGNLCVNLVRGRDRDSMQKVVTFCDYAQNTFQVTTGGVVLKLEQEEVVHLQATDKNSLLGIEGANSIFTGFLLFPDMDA
T1 sequence (chain, as listed by the source, chain 3 of 3): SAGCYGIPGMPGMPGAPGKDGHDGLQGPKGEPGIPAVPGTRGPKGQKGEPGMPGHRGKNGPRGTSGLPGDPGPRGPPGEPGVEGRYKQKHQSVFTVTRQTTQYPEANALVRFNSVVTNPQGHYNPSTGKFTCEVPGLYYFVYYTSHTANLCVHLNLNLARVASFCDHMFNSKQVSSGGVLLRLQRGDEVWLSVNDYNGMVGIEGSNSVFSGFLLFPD

B1: murine anti-human C1q monoclonal antibody M1 (antibody)
chain 1: QVQLQQPGAELVKPGASVKLSCKSSGYHFTSYWMHWVKQRPGQGLEWIGVIHPNSGSINYNEKFESKATLTVDKSSSTAYMQLSSLTSEDSAVYYCAGERDSTEVLPMDYWGQGTSVTVSS
chain 2: DVQITQSPSYLAASPGETITINCRASKSINKYLAWYQEKPGKTNKLLIYSGSTLQSGIPSRFSGSGSGTDFTLTISSLEPEDFAMYYCQQHNEYPLTFGAGTKLELK
Take B1: the Kd was under 0.1 nM in the test with mouse C1q [1], under 0.1 nM in the test with human C1q [2], 0.0323 nM with mouse C1q [3] and 0.0128 nM in the test with human C1q [4]. Further, the figures for the koff with mouse C1q [3] and in the test with human C1q [4] were 5.84e-05 s⁻¹ and 6.31e-05 s⁻¹, respectively. In addition, the kon with mouse C1q [3] came to 1.81e+06 M⁻¹ s⁻¹; with human C1q [4] it was 5.18e+06 M⁻¹ s⁻¹.
